According to patent US20210155670A1, “SYSTEMS AND METHODS FOR THE PREPARATION OF PEPTIDE-MHC-I COMPLEXES WITH NATIVE GLYCAN MODIFICATIONS” (The Regents of the University of California, priority 2019, published 2021):

Target: T cell receptor specific for HLA-A*02:01/NYESO, on Jurkat cells / NY-ESO-1 specific T cell line
Assay: flow cytometry, PE tetramer staining; the negative cells are said to have lost the TCR

tetramer-negative population of cells | Substance
9% | conventionally refolded NYESO/HLA-A*02:01 tetramer (from UniProt P61769 21-119) (peptide-MHC)
9% | CHO-derived PE-HLA-A*02:01 tetramer loaded with NY-ESO-1 peptide (single-chain complex, TAPBPR-exchanged) (peptide-MHC)
